Consider four substances from doi:10.1101/524447.

For this assay, the target named is Integrin β3 cytoplasmic tail peptide (human (from the printed UniProt ID)). The assay can be described thus: SPR. (In general: Surface plasmon resonance follows binding to a sensor surface in real time, without labels.)

In general, Kd refers to the concentration at which binding is half-saturated. Read a low Kd as tighter binding.

Turning to “Syk N-terminal SH2 domain alone (N-SH2) (domain or fragment)”, the Kd came to 130 µM.

Regarding “Syk N-terminal SH2 domain with the IA segment (N-SH2+IA) (domain or fragment)”, the Kd was found to be 8 µM.

“Syk tandem SH2 (tSH2) fragment, amino acids 9-264 (from UniProt P43405 9-264) (domain or fragment)”: the equilibrium dissociation constant (Kd) was 3 µM. In turn, “Syk C-terminal SH2 domain with the IA segment (IA-C-SH2) (domain or fragment)” gave a Kd of 25 µM.
